Test results published in the supplement of paper PMC7877785.
± gives the uncertainty stated by the source.

Assay: self-splicing fitness, log relative to wild type (ln ratio); higher = more splicing; Tetrahymena group I intron in knt gene, E. coli kanamycin selection, DiMSum; sequences stand for … in CUCUCU…GGAGGGAAAAGUUAUCAGGCAUGCACCUGGUAGCUAGUCUUUAAACCAAUAGAUUGCAUCGGUUUAAAAGGCAAGACCGUCAAAUUGCGGGAAAGGGGUCAACAGCCGUUCAGUACCAAGUCUCAGGGGAAACUUUGAGAUGGCCUUGCAAAGGGUAUGGUAAUAAGCUGACGGACAUGGUCCUAACCACGCAGCCAAGUCCUAAGUCAACAGAUCUUCUGUUGAUAUGGAUGCAGUUCACAGACUAAAUGUCGGUCGGGGAAGAUGUAUUCUUCUCAUAAGAUAUAGUCGGACCUCUCCUUAAUGGGAGCUAGCGGAUGAAGUGAUGCAACACUGGAGCCGCUGGGAACUAAUUUGUAUGCGAAAGUAUAUUGAUUAGUUUUGGAGUACUCGUGGUCG
In short: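 Fitness was computed with DiMSum as the error-weighted combination of replicate fold changes, kanamycin versus none, each normalised to wild type. The library randomised all eight intron nucleotides of the P1ex region, with the intron placed in the knt kanamycin-resistance gene on pET-22b(+) in E. coli BL21(DE3). Six replicate transformations were grown overnight at 37°C or 30°C on LB agar with or without 25 μg/mL kanamycin, plus 100 μg/mL carbenicillin, 50 μM IPTG and 0.2% rhamnose. Pooled colonies were amplicon-sequenced on an Illumina HiSeq 2500.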

Sequence | self-splicing fitness (ln) (30 °C) | self-splicing fitness (ln) (37 °C)
ACCUAGCAAUAUUACGAUAA | -2.61 ± 0.27 | -2.1 ± 0.23
AGAAAGCAAUAUUACGGGUC | -3.05 ± 0.21 | -3.35 ± 0.31
CGCAAGCAAUAUUACGGCGG | -0.329 ± 0.073 | 0.31 ± 0.09
GCUUAGCAAUAUUACGGAGG | -1.54 ± 0.1 | -0.819 ± 0.094
CUUCAGCAAUAUUACGCCGU | -3.17 ± 0.35 | -2.05 ± 0.29
UGAGAGCAAUAUUACGAUAG | -3.19 ± 0.38 | -2.11 ± 0.26
UGUCAGCAAUAUUACGGCAG | -1.55 ± 0.11 | -0.219 ± 0.13
CCUUAGCAAUAUUACGUGUU | -4.69 ± 0.32 | -3.25 ± 0.21
UUGUAGCAAUAUUACGGAUA | -2.68 ± 0.24 | -1.42 ± 0.23
UCGUAGCAAUAUUACGUUAG | -3.83 ± 0.3 | -2.1 ± 0.46
UUCCAGCAAUAUUACGGGUC | -2.91 ± 0.17 | -2.12 ± 0.25
UUUUAGCAAUAUUACGCGGU |  | -1.53 ± 0.45
AUAUAGCAAUAUUACGUUUC | -2.54 ± 0.27 | -1.45 ± 0.3
AAGAAGCAAUAUUACGCGAC | -3.25 ± 0.24 | -1.53 ± 0.13
CUCUAGCAAUAUUACGAUGU | -3.53 ± 0.22 | -2.92 ± 0.25
GUUUAGCAAUAUUACGGUGC | -1.02 ± 0.32 | 0.233 ± 0.44
AUUGAGCAAUAUUACGGCUC |  | -1.77 ± 0.32
UAUCAGCAAUAUUACGUAAC | -1.48 ± 0.14 | -0.246 ± 0.16
UACUAGCAAUAUUACGCCAA | 0.284 ± 0.44 | -1.02 ± 0.25
UGGUAGCAAUAUUACGAAAA | -2.14 ± 0.19 | -0.612 ± 0.17
UACCAGCAAUAUUACGUACG | -0.42 ± 0.12 | -0.594 ± 0.15
GACUAGCAAUAUUACGGCGU | -0.502 ± 0.11 | -0.198 ± 0.1
UCAUAGCAAUAUUACGGGCA | -1.29 ± 0.11 | -0.42 ± 0.1
AUGUAGCAAUAUUACGGGUU | -2.26 ± 0.1 | -2.23 ± 0.19
CGCGAGCAAUAUUACGUCAA | -2.88 ± 0.31 | 
AUUCAGCAAUAUUACGCUGC | -2.3 ± 0.13 | -2.35 ± 0.19

Sequence | self-splicing fitness (ln) (30 °C) | self-splicing fitness (ln) (37 °C)
UACAAGCAAUAUUACGGCCG | -0.0815 ± 0.085 | 0.427 ± 0.13
CAGAAGCAAUAUUACGUUGG | -2.15 ± 0.11 | -0.698 ± 0.1
UCUUAGCAAUAUUACGUACA | -2.58 ± 0.19 | -1.28 ± 0.16
AACUAGCAAUAUUACGAUAG | -3.19 ± 0.19 | -1.77 ± 0.13
GUCGAGCAAUAUUACGCCCG | -2.96 ± 0.48 | -2.03 ± 0.4
GCUAAGCAAUAUUACGUGGC | -2.87 ± 0.23 | -2.46 ± 0.41
GUUCAGCAAUAUUACGCAGA | -1.72 ± 0.2 | -1.3 ± 0.17
UACUAGCAAUAUUACGAUUU | -2.36 ± 0.12 | -0.92 ± 0.15
CGUCAGCAAUAUUACGCCCC | -0.652 ± 0.24 | -1.34 ± 0.3
UGCCAGCAAUAUUACGAAUU | -3.68 ± 0.26 | -3.3 ± 0.24
GCUAAGCAAUAUUACGAGUG | -1.09 ± 0.048 | -0.811 ± 0.06
AAUGAGCAAUAUUACGGCGC | -1.82 ± 0.089 | -1.09 ± 0.11
CCGUAGCAAUAUUACGUAAU | -4.17 ± 0.26 | -1.96 ± 0.26
UAUGAGCAAUAUUACGCUGG | -2.71 ± 0.33 | -1.79 ± 0.38
AGGUAGCAAUAUUACGGAAG | -3.612 ± 0.031 | -2.5 ± 0.04
AGGUAGCAAUAUUACGUAUA | -2.6 ± 0.023 | -1.45 ± 0.036
AGCAAGCAAUAUUACGAAUA | -2.74 ± 0.26 | -0.872 ± 0.16
GUCUAGCAAUAUUACGUAAG | -1.02 ± 0.099 | -0.654 ± 0.13
CAUUAGCAAUAUUACGAGUC |  | -1.48 ± 0.37
UGACAGCAAUAUUACGCUUC | -3.56 ± 0.25 | -2.29 ± 0.23
AAUUAGCAAUAUUACGGGGC | -2.38 ± 0.21 | 
GAGUAGCAAUAUUACGCGUA | -2.66 ± 0.33 | -0.648 ± 0.29
CGGCAGCAAUAUUACGAGCA | -2.99 ± 0.24 | -0.81 ± 0.13
CCUAAGCAAUAUUACGAGCG | -0.823 ± 0.097 | -0.11 ± 0.11
CGAUAGCAAUAUUACGAGCC | -2.23 ± 0.28 | -2.61 ± 0.44
UUCGAGCAAUAUUACGCCGA | -2.65 ± 0.22 | -2.66 ± 0.33

Sequence | self-splicing fitness (ln) (30 °C) | self-splicing fitness (ln) (37 °C)
AAUGAGCAAUAUUACGCUAA | -3.1 ± 0.36 | -1.9 ± 0.2
UUUCAGCAAUAUUACGAGGA | -0.995 ± 0.18 | -0.121 ± 0.22
UGUCAGCAAUAUUACGCGGA | -2.91 ± 0.2 | -1.52 ± 0.15
UACCAGCAAUAUUACGUCUU | -1.99 ± 0.08 | -0.209 ± 0.086
UACCAGCAAUAUUACGUCCA | -0.321 ± 0.081 | 0.176 ± 0.091
GCGUAGCAAUAUUACGUUUA | -2.16 ± 0.15 | -2.13 ± 0.15
CAUAAGCAAUAUUACGAAUU | -3.44 ± 0.27 | -1.52 ± 0.22
GGUGAGCAAUAUUACGAGUU | -2.39 ± 0.27 | -0.657 ± 0.16
GGUCAGCAAUAUUACGACGC | -0.817 ± 0.13 | -0.318 ± 0.18
UGUAAGCAAUAUUACGAGUC |  | -2.47 ± 0.33
CGAUAGCAAUAUUACGUUUC |  | -2.12 ± 0.15
AUGUAGCAAUAUUACGGAUC | -1.92 ± 0.2 | -1.61 ± 0.23
AUUGAGCAAUAUUACGGGCC | -2.96 ± 0.36 | -2.05 ± 0.43
AGACAGCAAUAUUACGGGGU | -3.82 ± 0.17 | -2.25 ± 0.15
AAGCAGCAAUAUUACGUACU | 0.254 ± 0.1 | 0.172 ± 0.11
CGCGAGCAAUAUUACGUCUC | -3.71 ± 0.35 | -2.28 ± 0.33
UGGUAGCAAUAUUACGAUCU | -0.554 ± 0.13 | 0.576 ± 0.18
GGUAAGCAAUAUUACGAAUA | -1.25 ± 0.26 | -0.561 ± 0.27
GACCAGCAAUAUUACGUCGU | -0.568 ± 0.052 | -0.218 ± 0.069
CCUAAGCAAUAUUACGGGAA | -3.52 ± 0.22 | -1.83 ± 0.2
GCAUAGCAAUAUUACGGUCC | -1.71 ± 0.098 | -1.48 ± 0.11
UCUAAGCAAUAUUACGGGAA | -2.29 ± 0.22 | -1.76 ± 0.14
UUUCAGCAAUAUUACGCACA | -0.372 ± 0.12 | 0.127 ± 0.15
CUGGAGCAAUAUUACGGACG | -1.4 ± 0.11 | -0.808 ± 0.11
UCGAAGCAAUAUUACGGCAU | -3.26 ± 0.2 | -1.62 ± 0.24
